The source of these data is the supplement of paper PMC10567573.

± gives the standard deviation.

A short description of this data set: protein stability index of a GFP-peptide fusion (GPS, HEK-293T) (PSI 1-6); higher = more stable.
The mark [1] stands for this setting: treatment: DMSO, c terminus: a fixed tail appended.
Setting [2] is: treatment: MLN4924 1 uM, 8 h, c terminus: a fixed tail appended.
The mark [3] stands for this setting: treatment: DMSO, c terminus: native.
Setting [4] is: treatment: MLN4924 1 uM, 8 h, c terminus: native.
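Further: 24-mer peptide tiles fused after GFP, lentivirally expressed, FACS-sorted into six equal bins by GFP/DsRed ratio, decoded by Illumina sequencing, PSI is the read-weighted mean bin number.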

For the sequence KKSNSPGTASSGSSRLPQPSGAGK [ZC2HC1A], the protein stability index was determined as 5.25 ± 0.19 under setting [1] and 5.23 ± 0.14 under setting [2].
On the same counts, the results for KKTQETLSQAGQKTSAALSTVGSA [TPD52L2] are 4.87 ± 0.24 and 4.99 ± 0.25.
Take KKYRLTEHERAHRGEKPHGCSLCG [ZNF649]: the protein stability index runs as follows: under setting [1], 3.72 ± 0.37; under setting [2], 3.85 ± 0.36.
On to KLKVQALKDRGLSIPRADTLDEY [LSM1], for which the protein stability index is, setting by setting: under setting [3], 4.01 ± 0.2; under setting [4], 4.04 ± 0.33.
With KLLMADQDSPLDLTVRKSQSEPSE [LCOR], the protein stability index runs as follows: under setting [1], 4.82 ± 0.28; under setting [2], 4.921 ± 0.036.
For KLYTGPGLAIHCMQVHKETIDAVP [ZNF207], in that order: 2.5 ± 0.36 and 2.61 ± 0.3.
For KNLQQTTNTTSTQMTNIGVYVSNM [IQUB], in that order: 3.25 ± 0.29 and 3.17 ± 0.22.
For KNQGEENGFPDSTGDPLPEISKDN [EDARADD], in that order: 5.5 ± 0.15 and 5.54 ± 0.067.
As for KPKPPPNSEGEQGPNGSQNSSYSQ [CCNC], the protein stability index runs as follows: under setting [1], 5.43 ± 0.14; under setting [2], 5.55 ± 0.18.
Take KPPPNSEGEQGPNGSQNSSYSQS [CCNC]: the protein stability index is 5.36 ± 0.24 under setting [3] and 5.41 ± 0.27 under setting [4].
As to KQDLVPGSPDDSHPKDGPSPGGTL [DLC1], the protein stability index under setting [1] was determined as 5.53 ± 0.25 and the protein stability index under setting [2] amounted to 5.37 ± 0.43.
For KQLKPWCWYCNRDFDDEKILIQHQ [ZNF207], in that order: 2.21 ± 0.45 and 2.46 ± 0.59.
As to KQQLVDAFLKLAKQRSVCTWGKNK [FAN1], the protein stability index worked out at 2.31 ± 0.21 under setting [1] and 2.25 ± 0.16 under setting [2].
As for KQRGYFFLDERLYCESHAKARVKP [PDLIM4], the protein stability index under setting [1] came to 2.81 ± 0.64 and the protein stability index under setting [2] is 3.11 ± 0.38.
On to KQTIGNSCKACGYRGMLDTHHKLC [EIF5], for which the protein stability index was 2.8 ± 0.37 under setting [1] and 2.81 ± 0.5 under setting [2].
For KREELCRQIQEEEDEKQRLQNEVR [SSNA1], in that order: 5.01 ± 0.22 and 5.1 ± 0.075.
In the case of KRGFEVVYMTEPIDEYCVQQLKEF [HSP90AB1], the protein stability index under setting [1] turned out to be 2.56 ± 0.35.
In the case of KRKRVKQRINTYVFVGNQLIPQPL [PCMTD1], the protein stability index runs as follows: under setting [1], 2.38 ± 0.17; under setting [2], 2.73 ± 0.35.
On the same counts, the results for KSGEGFIDFIGQVHKTKEQFGQDG [PTPRD] are 4.24 ± 0.49 and 4.23 ± 0.17.
For KSLEGGGTAFDAETDSEMNSQESR [SMG5], in that order: 5.5 ± 0.15 and 5.58 ± 0.15.
In the case of KSMAWCENSICVGFKRDYYLIRVD [VPS39], the protein stability index by setting is: under setting [1], 3 ± 1.3; under setting [2], 2.39 ± 0.89.
In the case of KSPEMPVILEVSLEGSHDTANCEA [RTP4], the protein stability index is, setting by setting: under setting [1], 4.85 ± 0.11; under setting [2], 5.07 ± 0.34.
As to KSSIIPFRALKRPLQFLGLFENSL [ZER1], the protein stability index worked out at 1.9 ± 0.5 under setting [1] and 2.31 ± 0.45 under setting [2].
For KTMPKSVVGLHAASKDPREVREAR [EHMT1], in that order: 4.78 ± 0.09 and 4.86 ± 0.26.
On the same counts, the results for KTPEEAYRALLSGSNPPYLPFRDA [CDC14A] are 3.27 ± 0.3 and 3.31 ± 0.25.
On the same counts, the results for KTPYDTSRRQEKSAGDADPENGEI [ELOA2] are 5.3 ± 0.22 and 5.51 ± 0.17.
Regarding KVFEELLLDADWSINAGSWMWLSC [CRY1], the protein stability index is, setting by setting: under setting [1], 2.28 ± 0.49; under setting [2], 2.58 ± 0.27.
For KVHYLFPDGKEMAEEYDEKTSELL [DPCD], in that order: 4.32 ± 0.25 and 4.42 ± 0.12.
For KVQELMSTHELEKKELEENFEKLR [MTUS2], in that order: 4.97 ± 0.54 and 5.14 ± 0.23.
On the same counts, the results for LACGTMSSTCGQLASYPLALVRTR [SLC25A25] are 1.96 ± 0.16 and 2.36 ± 0.12.
On to LAGGYTSSLACHRALQDAFSGLFW [MNAT1], for which the protein stability index under setting [1] stood at 2.44 ± 0.12 and the protein stability index under setting [2] was determined as 2.45 ± 1.
On the same counts, the results for LAGLSVGRSSLTACSLPLCACLLG [PXN] are 2.33 ± 0.39 and 2.33 ± 0.22.
For LASISTYGFRGEALASISHVAHVT [MLH1], in that order: 2.19 ± 0.48 and 2.19 ± 0.23.
For LAVLGADERIFSLTRRLAHGEELR [HAGHL], the protein stability index is 2.82 ± 0.23 under setting [1] and 2.81 ± 0.38 under setting [2].
For LCDGNPRRPSPVLRHLELLDEFAR [SCNN1D], in that order: 3.26 ± 0.087 and 3.53 ± 0.26.
For LCKNLNREAQQYSEALASTRILKH [GLIPR2], in that order: 3.57 ± 0.32 and 3.74 ± 0.33.
For LCLNTEDSFVCQCSEGFLINEDLK [MATN2], in that order: 3.03 ± 0.28 and 3.38 ± 0.28.
In the case of LCTPEGWFSCQGPFDMDSCLSRHS [DFFB], the protein stability index reads like this: under setting [1], 2.52 ± 0.5; under setting [2], 2.75 ± 0.38.
On the same counts, the results for LDAVENQLKWASWELHSLRHCDDD [ZNF24] are 3.96 ± 0.12 and 4.03 ± 0.15.
For LDDEDDDEEDCPNPEEYNLDEPNA [SRPK2], in that order: 5.57 ± 0.22 and 5.58 ± 0.24.
For LDHLSLGEEPVPHQQVEEALSFTL [NEK8], in that order: 4.1 ± 0.35 and 4 ± 0.29.
In the case of LDLKGNNLRAAGAEALGKLLQQNK [LRRC45], the protein stability index is 4.39 ± 0.19 under setting [1] and 4.27 ± 0.097 under setting [2].
On the same counts, the results for LDLRVKGILSSQAEGLANGPDVLE [EHMT1] are 4.12 ± 0.2 and 4.07 ± 0.39.
On the same counts, the results for LDVVDNQTEKLDTNITEVDAASVY [CASP6] are 5.06 ± 0.15 and 5.25 ± 0.15.
On the same counts, the results for LEEFKENAYKDLAWKHGNIHLSAP [PCMTD2] are 3.33 ± 0.26 and 3.81 ± 0.12.
For the sequence LEEKDRVLKKQDAFYKEQLARLEE [CHCHD3], the protein stability index runs as follows: under setting [1], 5.04 ± 0.25; under setting [2], 5.17 ± 0.24.
On the same counts, the results for LEKEQVAHIRAERDILVEADGAWV [STK38L] are 3.8 ± 0.31 and 3.916 ± 0.026.
In turn, LESSDLPVALLLAQHKDRSTQLEM [MNAT1] displayed a protein stability index under setting [1] of 3.47 ± 0.23 and a protein stability index under setting [2] of 3.53 ± 0.3.
For LFAELGYFTDTDELQLEAANETYE [ATF6], in that order: 4.04 ± 0.1 and 4.15 ± 0.24.
Regarding LFDFDLEVKPVLEVLVGKTIEQSL [RSPH3], the protein stability index is, setting by setting: under setting [1], 2.48 ± 0.42; under setting [2], 2.42 ± 0.039.
For LFLKEGACDELFSYLIEKVKRKKN [PRAME], in that order: 2.18 ± 0.5 and 2.21 ± 0.27.
For LFSEASECMLLVFGIDVKEVDPTG [MAGEA10], in that order: 2.3 ± 0.69 and 2.54 ± 0.21.
Sequence LFVGLYYNVIIGWSIFYFFKSFQY [SLC6A17] showed a protein stability index under setting [2] of 3.17 ± 1.5.
For LFVTVTAVNLSVSTLPSLREEEEQ [KCNG1], the protein stability index under setting [1] came out at 2.13 ± 0.34 and the protein stability index under setting [2] is 2.18 ± 0.45.
As to LGTKSCSSSCAVHDLIFWRDVKKT [RTN3], the protein stability index runs as follows: under setting [1], 2.29 ± 0.45; under setting [2], 2.09 ± 0.33.
Consider LHAWQINWPARQRGTHAVVGVATA [SPSB4], for which the protein stability index came to 2.39 ± 0.25 under setting [1] and 2.31 ± 0.21 under setting [2].
With LHDARLLRTIPSPYPASKADIPSV [DCAF4], the protein stability index under setting [1] is 3.36 ± 0.21 and the protein stability index under setting [2] came to 3.43 ± 0.11.
Consider LICFCRESRYMDQWVPVINLPER [GADD45A], for which the protein stability index was 2.98 ± 1.1 under setting [3] and 2.87 ± 0.84 under setting [4].
Regarding LIGLPPEDDWPRDVSLPRGAFPPR [CDK4], the protein stability index reads like this: under setting [1], 3.49 ± 0.32; under setting [2], 3.69 ± 0.23.
On the same counts, the results for LIRSLFHGFLFMIFQIGVLGFGPT [SOAT1] are 3.52 ± 0.5 and 3.28 ± 0.63.
On the same counts, the results for LISCSEDGSVRIWELREKQQLAAE [WDR41] are 2.89 ± 0.28 and 2.97 ± 0.2.
For LISQCGKPVVNVSYRPAYDQGGPV [DUSP5], in that order: 2.61 ± 0.38 and 2.6 ± 0.42.
Regarding LKKKHQLLEDARRKGMPFAQWDGP [PPFIA4], the protein stability index is, setting by setting: under setting [1], 3.11 ± 0.37; under setting [2], 3.31 ± 0.14.
For LKKMGKRLDYLNLKGARLTVEQGC [FBXO39], in that order: 2.62 ± 0.34 and 2.67 ± 0.28.
On the same counts, the results for LKLSIMSEEELTHIFGDLDSYIPL [NET1] are 2.21 ± 0.1 and 2.28 ± 0.2.
For LKRKGKTDSPWIKPARKRRRRSRK [EHMT1], in that order: 5.1 ± 0.17 and 5.03 ± 0.23.
As to LLAKMFGAKDSELASQNKPLWQCY [PDS5B], the protein stability index reads like this: under setting [1], 2.57 ± 0.66; under setting [2], 2.3 ± 0.31.
For LLCLFFGIPWEAGARQISYSIPEE [PCDHGA10], in that order: 1.94 ± 0.035 and 2.45 ± 0.41.
On the same counts, the results for LLLGSPHPAATALHAELCQAGSSQ [LPCAT4] are 3.01 ± 0.42 and 3.18 ± 0.21.
On the same counts, the results for LLLLQVSSSYAGQFRVIGPRHPIR [MOG] are 2.53 ± 0.51 and 2.04 ± 0.22.
As for LLSKKGALQSRAAQRHRGSAKDGG [PLEKHN1], the protein stability index is, setting by setting: under setting [1], 4.31 ± 0.12; under setting [2], 4.39 ± 0.28.
On the same counts, the results for LNATSKFMEFYQDVKDWWLFGFYF [EDNRA] are 2.49 ± 0.86 and 2.13 ± 0.37.
On the same counts, the results for LNLDIGQVYKETRLFLDGEEEKEW [AASDHPPT] are 3.95 ± 0.43 and 4.09 ± 0.44.
